According to patent publication US20240376170A1 (BRIGHT PEAK THERAPEUTICS, published 2024):
Where “and” joins values, the source holds several entries; their conditions need not be identical. Equal values may be shown once. Primed or numbered codes have the meaning given here. [ ]: non-standard residue; d: D form. Ygp = O-(8x polyethylene glycol-amino)-tyrosine (Tyr, amino-capped PEG8); Yn3 = O-(9x polyethylene glycol-azido)-tyrosine (Tyr, azide-capped PEG9); Ygp(7) = Tyr with amino-capped PEG8, O-(PEG8-amino)-tyrosine; Yn3(7) = Tyr with azide-capped PEG9, O-(PEG9-azido)-tyrosine; Ygp″ = O-(8x polyethylene glycol-amino)-tyrosine; Yn3″ = O-(9x polyethylene glycol-azido)-tyrosine; Ygp(3) = O-(PEG8-amino)-tyrosine; Yn3(3) = O-(PEG9-azido)-tyrosine; hSer = N[C@@H](CCO)C(=O)O; Nle = CCCC[C@H](N)C(=O)O; Dab = NCC[C@H](N)C(=O)O

What was measured:
[1] = target: T1, IL-2 receptor βγ complex (human, UniProt P14784 27-551; P31785 23-369); assay: cell-based or functional assay
T1 sequence (looked up) 1: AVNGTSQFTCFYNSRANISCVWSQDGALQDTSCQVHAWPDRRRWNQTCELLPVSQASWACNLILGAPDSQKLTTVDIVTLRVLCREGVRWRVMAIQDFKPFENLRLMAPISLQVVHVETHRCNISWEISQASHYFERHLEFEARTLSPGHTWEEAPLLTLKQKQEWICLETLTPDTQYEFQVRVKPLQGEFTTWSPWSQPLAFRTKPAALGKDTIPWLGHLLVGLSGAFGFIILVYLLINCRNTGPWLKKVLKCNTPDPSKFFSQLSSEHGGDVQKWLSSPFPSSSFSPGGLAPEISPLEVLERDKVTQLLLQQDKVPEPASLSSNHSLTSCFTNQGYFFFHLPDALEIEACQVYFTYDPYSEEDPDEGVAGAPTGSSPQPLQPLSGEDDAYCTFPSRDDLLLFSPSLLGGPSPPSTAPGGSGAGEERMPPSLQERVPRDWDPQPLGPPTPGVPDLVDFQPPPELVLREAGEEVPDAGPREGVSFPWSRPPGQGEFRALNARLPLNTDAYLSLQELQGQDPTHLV
T1 sequence (looked up) 2: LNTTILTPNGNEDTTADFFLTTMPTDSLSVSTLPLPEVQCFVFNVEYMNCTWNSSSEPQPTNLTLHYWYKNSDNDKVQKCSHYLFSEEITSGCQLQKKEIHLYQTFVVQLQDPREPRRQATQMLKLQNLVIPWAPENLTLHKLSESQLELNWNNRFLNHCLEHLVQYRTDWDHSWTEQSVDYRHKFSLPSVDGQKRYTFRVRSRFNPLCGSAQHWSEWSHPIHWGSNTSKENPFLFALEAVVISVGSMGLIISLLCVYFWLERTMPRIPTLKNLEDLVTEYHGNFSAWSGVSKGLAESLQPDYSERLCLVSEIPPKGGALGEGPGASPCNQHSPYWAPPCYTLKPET

[2] = target: T1, IL-2 receptor βγ complex; assay: cell-based or functional assay; remark: listed apart in the source
[3] = target: T2, IL-2 receptor βγ complex on C57BL/6 mouse splenocytes (mouse, UniProt P16297 27-539; P34902 23-369); assay: cell-based or functional assay
T2 sequence (looked up) 1: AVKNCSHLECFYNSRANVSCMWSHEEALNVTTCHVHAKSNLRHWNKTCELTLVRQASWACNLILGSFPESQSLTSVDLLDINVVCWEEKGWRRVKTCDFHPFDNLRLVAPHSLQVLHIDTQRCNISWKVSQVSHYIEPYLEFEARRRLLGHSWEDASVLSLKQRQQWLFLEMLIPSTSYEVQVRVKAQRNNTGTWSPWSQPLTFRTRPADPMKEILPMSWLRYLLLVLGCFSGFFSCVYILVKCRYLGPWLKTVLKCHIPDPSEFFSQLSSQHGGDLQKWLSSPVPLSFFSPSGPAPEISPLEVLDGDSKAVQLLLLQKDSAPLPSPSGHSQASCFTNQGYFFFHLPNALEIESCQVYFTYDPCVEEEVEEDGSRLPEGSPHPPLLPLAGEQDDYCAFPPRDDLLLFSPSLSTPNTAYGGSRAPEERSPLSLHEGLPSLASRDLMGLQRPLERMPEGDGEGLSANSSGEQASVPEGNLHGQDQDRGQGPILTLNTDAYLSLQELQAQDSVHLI
T2 sequence (looked up) 2: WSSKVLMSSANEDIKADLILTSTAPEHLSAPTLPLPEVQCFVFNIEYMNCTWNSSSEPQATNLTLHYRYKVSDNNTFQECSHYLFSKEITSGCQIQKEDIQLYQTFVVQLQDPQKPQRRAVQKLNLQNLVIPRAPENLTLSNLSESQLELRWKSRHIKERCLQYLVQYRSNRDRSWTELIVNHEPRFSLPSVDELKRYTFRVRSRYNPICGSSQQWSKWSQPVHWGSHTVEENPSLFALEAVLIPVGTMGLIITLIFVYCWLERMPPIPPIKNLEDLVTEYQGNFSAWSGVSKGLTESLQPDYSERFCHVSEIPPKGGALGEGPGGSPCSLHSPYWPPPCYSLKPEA

[4] = target: T3, recombinant human IL-2 receptor beta containing a His-tag and Avi-tag (human, UniProt P14784 27-239); assay: BLI (Octet R8), receptor on SAX2 sensor; construct CMP-145, not MMP2-treated
T3 construct: Bought; attached to the SAX2 biosensor; also called CD122; IL-2R β; not shown: His-tag and Avi-tag
T3 sequence (looked up): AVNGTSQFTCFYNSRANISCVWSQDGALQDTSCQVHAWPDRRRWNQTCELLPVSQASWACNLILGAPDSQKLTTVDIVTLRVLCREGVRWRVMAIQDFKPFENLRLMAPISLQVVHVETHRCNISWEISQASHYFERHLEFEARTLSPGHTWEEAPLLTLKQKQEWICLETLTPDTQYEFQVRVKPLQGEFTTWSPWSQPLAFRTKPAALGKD
Experimental: (§1) Bilayer interferometry (BLI) assays were used to measure the binding constants between activatable IL-2 polypeptides (and activated versions thereof) to IL-2 receptor subunits or receptor complexes. BLI assays were conducted on an Octet® R8 instrument. Assay plates were 96 well, polypropylene, F-bottom (chimney well), black microplates (Greiner Bio-one, Cat. No: 655209). The biosensors were Octet® SAX2 (Sartorius, Cat. No: 18-5136). The assay buffer was 1X Kinetic Buffer (Sartorius, Cat. no: 18-5136) or Phosphate Buffered Saline (PBS) that contained 0.02% (v: v) Tween 20 (Polysorbate 20) and 0.1% (w/v) bovine serum albumin (BSA). The sensor was regenerated between measurements in 10 mM glycine pH 2.7 buffer.
(§2) Sensor attached receptors were either recombinant human IL-2 receptor beta containing a His-tag and Avi-tag™ (R&D Systems™) or an Avi-tag™ Fc with human IL-2R beta and IL-2R gamma attached (Acrobiosystems Cat. no: ACRB-ILG-H₈₂F3-25UG). Receptors were reconstituted from lyophilized powder to 500 μg/ml in PBS. Analytes were diluted in Kinetic buffer to 300 nM, then serially diluted to lower concentrations.

[5] = target: T4, Avi-tag Fc with human IL-2R beta and IL-2R gamma attached (Acrobiosystems ACRB-ILG-H82F3-25UG) (human, UniProt P14784 27-239; P31785 23-262); assay: as above
T4 construct: Bought; attached to the SAX2 biosensor; also called CD122 CD132; IL-2R βγ; not shown: Fc and Avi-tag
T4 sequence (looked up) 1: T3 sequence (looked up)
T4 sequence (looked up) 2: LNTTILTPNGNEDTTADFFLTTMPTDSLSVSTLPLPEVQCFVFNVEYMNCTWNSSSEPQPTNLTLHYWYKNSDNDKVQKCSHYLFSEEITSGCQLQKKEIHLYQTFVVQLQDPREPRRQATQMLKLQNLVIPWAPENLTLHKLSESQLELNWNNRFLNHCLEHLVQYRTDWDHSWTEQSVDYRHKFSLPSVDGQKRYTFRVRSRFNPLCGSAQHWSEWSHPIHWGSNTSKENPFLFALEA
Experimental: as §1, §2

[6] = target: T4, Avi-tag Fc with human IL-2R beta and …; assay: BLI (Octet R8), receptor on SAX2 sensor
Experimental: as §1, §2

[7] = target: T5, IL-2 receptor βγ complex on human T cells (human, UniProt P14784 27-551; P31785 23-369); assay: cell-based or functional assay
T5 sequence (looked up) 1: T1 sequence (looked up) 1
T5 sequence (looked up) 2: T1 sequence (looked up) 2

B1: CMP-151, MMP2 cleaved molecule (ligand)
chain: APTSSSTKKTQLQLEHLLLDLQKILNGINNYKNPKLTR[Nle]L[hSer][Yn3″]KF[Ygp″][Nle]PKKATELKHLQCLEEELKPLEEVL[hSer]LAQSKNFHLRPRDLISNINVIVLELKGSETTF[hSer]CEYADETATIVEFLNRWITFSQSIISTLT
modifications: not fully specified; also: cleaved by MMP2, cleavage product not defined, N-terminal glutaryl-PEG9 link and Lys23 side-chain attachment not defined
[1]
  Average EC50, pSTAT5 Assay (T cells): 1.81 nM
[2]
  Average EC50, pSTAT5 Assay in NK cells: 0.352 nM
[3]
  Average EC50, pSTAT5 Assay in mouse splenocytes: 89.2 nM

B2: CMP-003 (ligand)
chain: APTSSSTKKTQLQLEHLLLDLQ[Nle]ILNGINNYKNPKLTR[Nle]L[hSer][Yn3]KF[Ygp][Nle]PKKATELKHLQCLEEELKPLEEVL[hSer]LAQSKNFHLRPRDLISNINVIVLELKGSETTF[hSer]CEYADETATIVEFLNRWITFSQSIISTLT
modifications: ends and bridges not checked
[3]
  Average EC50, pSTAT5 Assay in mouse splenocytes: 24 nM

B3: CMP-145 (ligand)
chain: APTSSSTKKTQLQLEHLLLDLQKILNGINNYKNPKLTR[Nle]L[hSer][Yn3(3)]KF[Ygp(3)][Nle]PKKATELKHLQCLEEELKPLEEVL[hSer]LAQSKNFHLRPRDLISNINVIVLELKGSETTF[hSer]CEYADETATIVEFLNRWITFSQSIISTLT
modifications: also: Lys23 side chain attached to another sequence (not given here)
notes: Synthetic IL-2 polypeptide, tested intact
[4]
  Kd: 1830 nM
[5]
  Kd: 10.2 nM
[6]
  koff: 0.00117 s⁻¹

B4: CMP-138, MMP2 cleaved molecule (ligand)
chain: APTSSSTKKTQLQLEHLLLDLQ[Nle]ILNGIENYKNPKLTR[Nle]L[hSer][Yn3]KF[Ygp][Nle]PKKATELKHLQCLEEELKPLEEVL[hSer]LAQSKNFHLRPRDLISNINVIVLELKGSETTF[hSer]CEYADETATIVEFLNRWITFSQSIISTLT
modifications: ends and bridges not checked; also: cleaved by MMP2, cleavage product not defined, N-terminal PEG4 link and Glu29 side-chain attachment of the cleavable peptide not defined
[1]
  Average EC50, pSTAT5 Assay (T cells): 2.32 nM
[2]
  Average EC50, pSTAT5 Assay in NK cells: 0.288 nM
[3]
  Average EC50, pSTAT5 Assay in mouse splenocytes: 75.1 nM

B5: CMP-003, MMP2 treated (ligand)
chain: APTSSSTKKTQLQLEHLLLDLQ[Nle]ILNGINNYKNPKLTR[Nle]L[hSer][Yn3]KF[Ygp][Nle]PKKATELKHLQCLEEELKPLEEVL[hSer]LAQSKNFHLRPRDLISNINVIVLELKGSETTF[hSer]CEYADETATIVEFLNRWITFSQSIISTLT
modifications: ends and bridges not checked
[3]
  Average EC50, pSTAT5 Assay in mouse splenocytes: 45.7 nM

B6: CMP-145, MMP2 cleaved molecule (ligand)
chain: APTSSSTKKTQLQLEHLLLDLQKILNGINNYKNPKLTR[Nle]L[hSer][Yn3]KF[Ygp][Nle]PKKATELKHLQCLEEELKPLEEVL[hSer]LAQSKNFHLRPRDLISNINVIVLELKGSETTF[hSer]CEYADETATIVEFLNRWITFSQSIISTLT
modifications: ends and bridges not checked; also: Lys23 side chain attached to another sequence (cleavable peptide), cut by MMP2, product not given here
[2]
  Average EC50, pSTAT5 Assay in NK cells: 0.082 nM and 0.246 nM
[3]
  Average EC50, pSTAT5 Assay in mouse splenocytes: 55.2 nM

B7: CMP-130 (ligand)
chain: APTSSSTKKTQLQLE[Dab]LLLDLQ[Nle]ILNGINNYKNPKLTR[Nle]L[hSer][Yn3(7)]KF[Ygp(7)][Nle]PKKATELKHLQCLEEELKPLEEVL[hSer]LAQSKNFHLRPRDLISNINVIVLELKGSETTF[hSer]CEYADETATIVEFLNRWITFSQSIISTLT
modifications: ends and bridges not checked
[7]
  Average EC50, pSTAT5 Assay (T cells), intact molecule: 66.8 nM

B8: CMP-136, MMP2 cleaved molecule (ligand)
chain: APTSSSTKKTQLQLEHLLLDLQ[Nle]ILNGIENYKNPKLTR[Nle]L[hSer][Yn3]KF[Ygp][Nle]PKKATELKHLQCLEEELKPLEEVL[hSer]LAQSKNFHLRPRDLISNINVIVLELKGSETTF[hSer]CEYADETATIVEFLNRWITFSQSIISTLT
modifications: ends and bridges not checked; also: cleaved by MMP2, cleavage product not defined, N-terminal PEG9 link and Glu29 side-chain attachment of the cleavable peptide not defined
[1]
  Average EC50, pSTAT5 Assay (T cells): 2.4 nM
[2]
  Average EC50, pSTAT5 Assay in NK cells: 0.277 nM
[3]
  Average EC50, pSTAT5 Assay in mouse splenocytes: 84.7 nM
